The text below walks through data of FireProtDB.

Broadly, the Tm is the temperature at the midpoint of the melting transition.

Several values for one entry are separate records, joined by “and”; a condition that tells them apart may be missing. Equal entries are not always repeated.

For the data set the following is noted: whole UniProt chain shown.
Where [1] appears, read: Thermus thermophilus, pH 7, 25 °C, GdnHCl, CD, Potassium phosphate 20 mM, potassium chloride 50 mM.
Setting [2] is: Vibrio harveyi, pH 7, 18 °C, Urea, CD, phosphate 50 mM, reversible: yes.
[3] abbreviates: Thermus thermophilus (strain ATCC 27634 / DSM 579 / HB8), pH 7.5, 25 °C, GdnHCl, Fluorescence, tris-HCl 20 mM, reversible: yes.
Where [4] appears, read: Thermus thermophilus (strain ATCC 27634 / DSM 579 / HB8), pH 7.4, 29 °C, Thermal, CD, Potassium phosphate 50 mM, reversible: Yes.
Setting [5] is: Thermus thermophilus (strain ATCC 27634 / DSM 579 / HB8), pH 7.4, 35 °C, Thermal, CD, Potassium phosphate 50 mM, reversible: Yes.
[6] abbreviates: Thermus thermophilus (strain ATCC 27634 / DSM 579 / HB8), pH 7.4, Thermal, absorbance, Potassium buffer.

B1: Small ribosomal subunit protein bS6 wild type, P23370 (protein)
chain: MRRYEVNIVLNPNLDQSQLALEKEIIQRALENYGARVEKVEELGLRRLAYPIAKDPQGYFLWYQVEMPEDRVNDLARELRIRDNVRRVMVVKSQEPFLANA
With B1, under setting [1], the denaturant m value turned out to be 2.5 kcal/mol/M and the unfolding free energy is 8.5 kcal/mol.

B2: Alkanal monooxygenase alpha chain wild type, P07740 (protein)
chain: MKFGNFLLTYQPPELSQTEVMKRLVNLGKASEGCGFDTVWLLEHHFTEFGLLGNPYVAAAHLLGATETLNVGTAAIVLPTAHPVRQAEDVNLLDQMSKGRFRFGICRGLYDKDFRVFGTDMDNSRALMDCWYDLMKEGFNEGYIAADNEHIKFPKIQLNPSAYTQGGAPVYVVAESASTTEWAAERGLPMILSWIINTHEKKAQLDLYNEVATEHGYDVTKIDHCLSYITSVDHDSNRAKDICRNFLGHWYDSYVNATKIFDDSDQTKGYDFNKGQWRDFVLKGHKDTNRRIDYSYEINPVGTPEECIAIIQQDIDATGIDNICCGFEANGSEEEIIASMKLFQSDVMPYLKEKQ
As for B2, the denaturant m value runs as follows: under setting [2], 2.26 kcal/mol/M and 2.18 kcal/mol/M; (Vibrio harveyi, pH 7, 18 °C, Urea, Fluorescence, NaH2PO4-K2HPO4 50 mM, transition: 3, reversible: yes) 2.38 kcal/mol/M and 3.99 kcal/mol/M; (Vibrio harveyi, pH 7, 18 °C, Urea, Fluorescence, phosphate 50 mM, reversible: yes) 2.47 kcal/mol/M. For the same protein, the unfolding free energy under setting [2] was 2.36 kcal/mol and 6.04 kcal/mol.

B3: Phosphoglycerate kinase wild type, P09403 (protein)
chain: MRTLLDLDPKGKRVLVRVDYNVPVQDGKVQDETRILESLPTLRHLLAGGASLVLLSHLGRPKGPDPKYSLAPVGEALRAHLPEARFAPFPPGSEEARREAEALRPGEVLLLENVRFEPGEEKNDPELSARYARLGEAFVLDAFGSAHRAHASVVGVARLLPAYAGFLMEKEVRALSRLLKDPERPYAVVLGGAKVSDKIGVIESLLPRIDRLLIGGAMAFTFLKALGGEVGRSLVEEDRLDLAKDLLGRAEALGVRVYLPEDVVAAERIEAGVETRVFPARAIPVPYMGLDIGPKTREAFARALEGARTVFWNGPMGVFEVPPFDEGTLAVGQAIAALEGAFTVVGGGDSVAAVNRLGLKERFGHVSTGGGASLEFLEKGTLPGLEVLEG
For the protein B3, under setting [3], the denaturant m value worked out at 2.7 kcal/mol/M, the “denaturant midpoint (higher = more stable)” value was determined as 2.34 M and the unfolding free energy was 6.32 kcal/mol.

B4: Triosephosphate isomerase, glycosomal wild type, P04789 (protein)
chain: MSKPQPIAAANWKCNGSQQSLSELIDLFNSTSINHDVQCVVASTFVHLAMTKERLSHPKFVIAAQNAIAKSGAFTGEVSLPILKDFGVNWIVLGHSERRAYYGETNEIVADKVAAAVASGFMVIACIGETLQERESGRTAVVVLTQIAAIAKKLKKADWAKVVIAYEPVWAIGTGKVATPQQAQEAHALIRSWVSSKIGADVAGELRILYGGSVNGKNARTLYQQRDVNGFLVGGASLKPEFVDIIKATQ
On to B4, for which the Tm reads like this: (Trypanosoma brucei brucei, pH 7, Thermal, CD, 3-(N-morpholino)propanesulfonic acid/dithiothreitol 20 mM/0.02 mM, EDTA 0.02 mM) 52.2 °C; (Trypanosoma brucei brucei, pH 7.4, Thermal, CD, MOPS 20 mM, EDTA 1 mM, reversible: no) 51.4 °C; (Trypanosoma brucei brucei, pH 7.5, Thermal, CD, TEA 0.9 mM, NaCl 1.2 mM) 44 °C and 48 °C.

B5: Protein GrpE wild type, Q56236 (protein)
chain: MEERNHENTLEKDLEAVGQEAQALEERLKAAEEELKGLKDKYLRLLADFDNYRKRMEEELKAREREGVLKALRALLPVLDDLDRALEFAEASPESIRQGVRAIRDGFFRILAGLGVEEVPGEGEAFDPRYHEAVGLLPGEPGKVAKVFQRGFRMGEALVRPARVAVGEEKREEADLE
For the protein B5, for the setting “Thermus thermophilus (strain ATCC 27634 / DSM 579 / HB8), pH 7.5, 25 °C, GdnHCl, CD, Tris-HCl 20 mM, KCl 100 mM, reversible: yes”, the unfolding free energy was determined as 4.13 kcal/mol. In addition, the midpoint of thermal melting (Tm) (Thermus thermophilus (strain ATCC 27634 / DSM 579 / HB8), pH 7.5, Thermal, DSC, Hepes-NaOH 20 mM, KCl 100 mM, reversible: yes) is 106 °C.

B6: wild type, Q53W59 (protein)
chain: MKRLSLREAWPYLKDLQQDPLAVLLEWGRAHPRLFLPLPRFPLALIFDPEGVEGALLAEGTTKATFQYRALSRLTGRGLLTDWGKSWKEARKALKDPFLPKSVRGYREAMEEEAWAFFGEWRGEERDLDHEMLALSLRLLGRALFGKPLSPSLAEHALKALDRIMAQTRSPLALLDLAAEARFRKDRGALYREAEALIVHPPLSHLPRERALSEAVTLLVAGHETVASALTWSFLLLSHRPDWQKRVAESEEAALAAFQEALRLYPPAWILTRRLERPLLLGEDRLPQGTTLVLSPYVTQRLYFPEGEAFQPERFLAERGTPSGRYFPFGLGQRLCLGRDFALLEGPIVLRAFFRRFRLDPLPFPRVLAQVTLRPEGGLPARPREGVRA
Turning to B6, under setting [4], the “heat capacity change of unfolding” value stood at 1.15 kcal/mol/K, the “unfolding enthalpy (van 't Hoff)” value is 71 kcal/mol and the unfolding free energy is 5.74 kcal/mol. Also, under setting [5], the “heat capacity change of unfolding” value came out at 1.17 kcal/mol/K, the “unfolding enthalpy (van 't Hoff)” value is 61.7 kcal/mol and the unfolding free energy is 4.3 kcal/mol. Besides, the Tm (Thermus thermophilus (strain ATCC 27634 / DSM 579 / HB8), pH 7.4, Thermal, CD, Potassium phosphate 50 mM, reversible: Yes) is 87 °C and 83.7 °C. Under setting [6], the Tm turned out to be 88 °C, the “heat capacity change of unfolding” value came to 1.14 kcal/mol/K and the “unfolding enthalpy (calorimetric)” value turned out to be 71 kcal/mol.
